Data published in patent US20130071375.

Legend:
[1] = molecular target: High mobility group box 1 (UniProt P09429)
[2] = molecular target: Thrombomodulin (recombinant) (UniProt P07204)
Thrombomodulin (recombinant), sequence (P07204 whole entry, looked up): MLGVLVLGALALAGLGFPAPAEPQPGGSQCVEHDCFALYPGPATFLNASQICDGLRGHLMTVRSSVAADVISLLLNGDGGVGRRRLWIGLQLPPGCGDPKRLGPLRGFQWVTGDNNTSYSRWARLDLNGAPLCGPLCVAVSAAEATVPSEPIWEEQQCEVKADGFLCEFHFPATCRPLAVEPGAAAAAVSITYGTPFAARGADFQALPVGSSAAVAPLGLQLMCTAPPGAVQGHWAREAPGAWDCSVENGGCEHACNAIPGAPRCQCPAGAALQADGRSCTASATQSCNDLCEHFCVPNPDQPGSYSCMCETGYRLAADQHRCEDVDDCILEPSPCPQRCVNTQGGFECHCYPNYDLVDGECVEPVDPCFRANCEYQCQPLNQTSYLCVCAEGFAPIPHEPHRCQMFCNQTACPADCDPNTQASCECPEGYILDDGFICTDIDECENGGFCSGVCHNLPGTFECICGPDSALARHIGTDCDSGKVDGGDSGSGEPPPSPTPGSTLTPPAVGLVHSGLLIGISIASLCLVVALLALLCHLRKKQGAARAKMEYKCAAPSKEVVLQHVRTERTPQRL

High mobility group box 1, sequence (P09429 whole entry): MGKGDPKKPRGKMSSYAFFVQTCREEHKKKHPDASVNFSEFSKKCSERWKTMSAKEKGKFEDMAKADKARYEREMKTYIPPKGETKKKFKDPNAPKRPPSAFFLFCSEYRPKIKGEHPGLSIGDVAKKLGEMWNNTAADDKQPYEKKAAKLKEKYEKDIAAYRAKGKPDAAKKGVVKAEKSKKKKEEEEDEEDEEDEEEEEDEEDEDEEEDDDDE

| Substance | proteolytic cleavage of HMGB1 (400 nmol/L) by 2 nM protease, SDS-PAGE and immunoblot [1] | acceleration of HMGB1 cleavage by 2 nM PCgla/MeizoTh with 400 nmol/L recombinant TM, SDS-PAGE and immunoblot [2] | proteolytic degradation of HMGB1 by 100 nM APC, with or without soluble EPCR and/or PC/PS/PE vesicles, 2 hours at 37 C [1] |
| --- | --- | --- | --- |
| PCgla/meizothrombin (meizothrombin with its Gla-domain replaced by that of protein C; Factor Xa-activated PCgla/prothrombin-3A) | PCgla/MeizoTh can proteolytically cleave HMGB1 | TM can function as a cofactor to markedly accelerate the cleavage reaction |  |
| Activated protein C |  |  | APC had no direct proteolytic effect on HMGB1 ... did not lead to the degradation of HMGB1 even after 2 hours incubation at 37 °C (data not shown) |
